One block for each molecule: values may come before it.
How the values were obtained:
[1] = target: rat glucagon receptor encoded by plasmid pLJ4 (rat)
[2] = target: rat glucagon receptor encoded by plasmid pLJ4 (rat); remark: listed apart in the source
[3] = target: rat glucagon receptor encoded by plasmid pLJ4 (rat); remark: listed apart in the source
[4] = target: rat glucagon receptor encoded by plasmid pLJ4 (rat); remark: listed apart in the source
[5] = target: glucagon receptors of rat liver membrane preparations (rat) (UniProt P30082); assay: Scatchard analysis of 125I-glucagon binding in competition with unlabeled glucagon, rat liver membranes
[6] = target: rat glucagon receptor encoded by plasmid pLJ4 (rat); assay: Scatchard analysis of 125I-glucagon binding in competition with unlabeled glucagon, membranes of pLJ4 BHK transfectants
[7] = target: human glucagon receptor encoded by plasmid pLJ6' (human); assay: in situ 125I-glucagon binding with emulsion autoradiography on pLJ6'-transfected COS 7 cells
[8] = target: T1, bovine parathyroid hormone (PTH) (Sigma) (bovine, UniProt P01268); assay: competition with 125I-glucagon, membranes of pLJ4 BHK transfectants
T1 sequence (peptide): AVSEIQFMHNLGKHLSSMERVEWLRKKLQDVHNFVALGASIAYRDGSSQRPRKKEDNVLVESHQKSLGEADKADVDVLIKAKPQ
Description: The binding reaction was initiated by the addition of 20 µl of a membrane preparation to the reaction tubes. The reactions were incubated for 30 minutes at 30° C. The membranes were pelleted by centrifugation in a microfuge at high speed for 10 minutes at 4° C. The supernatants from each sample were aspirated, and the pellets were counted.

cAMP levels (Amersham SPA kit) [1]: 5 fold
fold induction of luciferase (CRE-luciferase) [2]: 6 to 10 fold
ED50 of cAMP induction [3]: 0.25 nM
induction of cAMP levels (scintillation proximity radioimmunoassay) [3]: 140 fold
intracellular calcium concentration (fura-2 photoimaging) [4]: 400 nM
Kd [5]: 49 nM
Kd [6]: 50 nM
Molecule: glucagon (ligand)

percent of transfected cells that bound glucagon [7]: > 50%
Molecule: 125I-glucagon (Amersham receptor grade) (ligand)

binding result [8]: no binding (tested: 1 µM)
B1: rat glucagon receptor encoded by plasmid pLJ4 (receptor)
chain: AQVMDFLFEKWKLYSDQCHHNLSLLPPPTELVCNRTFDKYSCWPDTPPNTTANISCPWYLPWYHKVQHRLVFKRCGPDGQWVRGPRGQSWRDASQCQMDDDEIEVQKGVAKMYSSYQVMYTVGYSLSLGALLLALVILLGLRKLHCTRNYIHGNLFASFVLKAGSVLVIDWLLKTRYSQKIGDDLSVSVWLSDGAVAGCRVATVIMQYGIIANYCWLLVEGVYLYSLLSITTFSEKSFFSLYLCIGWGSPLLFVIPWVVVKCLFENVQCWTSNDNMGFWWILRIPVLLAILINFFIFVRIIHLLVAKLRAHQMHYADYKFRLARSTLTLIPLLGVHEVVFAFVTDEHAQGTLRSTKLFFDLFFSSFQGLLVAVLYCFLNKEVQAELLRRWRRWQEGKALQEERMASSHGSHMAPAGTCHGDPCEKLQLMSAGSSSGTGCEPSAKTSLASSLPRLADSPT

Source: patent US5776725, “Recombinant production of glucagon receptors” (ZymoGenetics, Inc., dated 1998)
